In test [1] the target is T1, HcoV-OC43 S protein (HcoV-OC43, UniProt P36334 14-1297).
T1 sequence: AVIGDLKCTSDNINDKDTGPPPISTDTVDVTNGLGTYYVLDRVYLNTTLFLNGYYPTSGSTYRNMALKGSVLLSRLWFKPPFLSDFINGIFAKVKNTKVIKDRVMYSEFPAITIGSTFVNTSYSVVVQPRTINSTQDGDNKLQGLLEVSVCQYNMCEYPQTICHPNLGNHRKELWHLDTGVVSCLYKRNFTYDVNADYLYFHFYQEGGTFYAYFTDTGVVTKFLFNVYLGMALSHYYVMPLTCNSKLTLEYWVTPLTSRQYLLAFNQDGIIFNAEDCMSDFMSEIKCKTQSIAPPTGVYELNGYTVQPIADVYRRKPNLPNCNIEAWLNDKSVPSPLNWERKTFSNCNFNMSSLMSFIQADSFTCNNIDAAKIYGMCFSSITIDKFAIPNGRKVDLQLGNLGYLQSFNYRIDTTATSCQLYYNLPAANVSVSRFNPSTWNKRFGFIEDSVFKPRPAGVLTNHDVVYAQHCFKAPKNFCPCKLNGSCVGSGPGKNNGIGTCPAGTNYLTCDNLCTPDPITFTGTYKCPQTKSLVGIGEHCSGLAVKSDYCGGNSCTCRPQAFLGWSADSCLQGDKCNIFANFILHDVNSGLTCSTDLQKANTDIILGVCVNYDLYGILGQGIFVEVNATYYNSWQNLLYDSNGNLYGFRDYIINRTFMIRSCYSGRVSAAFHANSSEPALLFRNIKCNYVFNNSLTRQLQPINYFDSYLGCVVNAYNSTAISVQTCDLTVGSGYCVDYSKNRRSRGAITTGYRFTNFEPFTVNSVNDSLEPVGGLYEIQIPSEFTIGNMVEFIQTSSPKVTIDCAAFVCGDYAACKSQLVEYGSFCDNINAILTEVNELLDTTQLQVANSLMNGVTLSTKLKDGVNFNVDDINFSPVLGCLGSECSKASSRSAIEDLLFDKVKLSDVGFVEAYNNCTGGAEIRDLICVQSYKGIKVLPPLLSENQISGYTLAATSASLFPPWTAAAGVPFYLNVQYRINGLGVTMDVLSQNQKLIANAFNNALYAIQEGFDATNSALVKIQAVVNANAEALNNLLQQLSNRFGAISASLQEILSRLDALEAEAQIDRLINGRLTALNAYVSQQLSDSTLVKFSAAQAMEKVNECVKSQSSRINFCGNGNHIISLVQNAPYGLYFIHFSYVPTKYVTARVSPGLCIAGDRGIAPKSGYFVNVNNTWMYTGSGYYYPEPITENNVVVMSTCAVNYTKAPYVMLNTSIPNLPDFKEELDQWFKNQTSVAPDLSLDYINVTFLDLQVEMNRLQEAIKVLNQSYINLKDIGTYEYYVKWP
Nature of the test: direct ELISA, OD450.

Test [2] deals with MERS-CoV Spike protein (MERS-CoV, UniProt K9N5Q8 18-1296). Nature of the test: direct ELISA, OD450.
In test [3] the target is T2, HcoV-229E S protein (HcoV-229E, UniProt P15423 16-1115).
T2 sequence: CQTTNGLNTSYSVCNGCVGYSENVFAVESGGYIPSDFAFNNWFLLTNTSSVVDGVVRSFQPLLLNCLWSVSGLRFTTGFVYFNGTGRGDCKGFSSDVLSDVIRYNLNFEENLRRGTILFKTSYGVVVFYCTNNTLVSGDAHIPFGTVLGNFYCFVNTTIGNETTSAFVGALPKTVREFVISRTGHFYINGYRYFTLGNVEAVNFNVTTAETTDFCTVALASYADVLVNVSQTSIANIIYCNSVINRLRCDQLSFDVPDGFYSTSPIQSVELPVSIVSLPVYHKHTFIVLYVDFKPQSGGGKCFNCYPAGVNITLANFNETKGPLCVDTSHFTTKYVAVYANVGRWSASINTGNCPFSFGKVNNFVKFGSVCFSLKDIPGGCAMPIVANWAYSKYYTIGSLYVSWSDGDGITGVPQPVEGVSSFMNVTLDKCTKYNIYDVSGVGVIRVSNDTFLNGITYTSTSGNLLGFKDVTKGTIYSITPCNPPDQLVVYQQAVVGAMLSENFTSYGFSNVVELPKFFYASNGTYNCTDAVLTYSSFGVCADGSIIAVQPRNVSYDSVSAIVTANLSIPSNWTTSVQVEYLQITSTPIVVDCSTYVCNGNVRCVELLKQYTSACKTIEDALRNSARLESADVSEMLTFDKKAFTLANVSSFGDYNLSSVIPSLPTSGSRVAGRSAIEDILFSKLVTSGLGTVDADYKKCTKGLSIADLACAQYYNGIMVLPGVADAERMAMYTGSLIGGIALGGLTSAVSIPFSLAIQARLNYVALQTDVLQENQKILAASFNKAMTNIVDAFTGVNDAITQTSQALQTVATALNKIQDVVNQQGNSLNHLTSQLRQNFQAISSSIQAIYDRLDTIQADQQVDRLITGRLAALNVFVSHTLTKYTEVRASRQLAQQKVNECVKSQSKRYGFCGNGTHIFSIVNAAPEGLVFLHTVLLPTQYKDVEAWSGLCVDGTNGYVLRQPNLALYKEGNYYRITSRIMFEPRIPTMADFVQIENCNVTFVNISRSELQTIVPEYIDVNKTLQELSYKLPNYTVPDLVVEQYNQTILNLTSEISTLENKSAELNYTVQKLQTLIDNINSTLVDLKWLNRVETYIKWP
Nature of the test: direct ELISA, OD450. A general note: ELISA stands for enzyme-linked immunosorbent assay.

The target in test [4] is SARS-CoV-2 Spike S1 protein (SARS-CoV-2, UniProt P0DTC2 16-685).

B1: rabbit monoclonal antibody 1A3 against the SARS-CoV-2 S1 (antibody, V domains shown)
VH: QSLEESGGRLVTPGTPLTLTCTVSGFSFSSYHMGWVRQAPGEGLEWIGTLIGIAGNTYYASWAKGRFSISKTSTTVDLKMTSPTTEDTATYWCARIVTATFEFWGPGTLVTVSS
VL: AQVLTQTPSPVSAAVGGTVTISCQASQSVNMNLLSWFQQKPGQPPKLLIYQASNLASGVSARFKGSGSGTQFTLTINEIQCDDAATYYCQGDMGGWMFPFGGGTEVVVTG
In the case of B1, the binding result in test [1], in test [2] and in test [3] was “no binding” throughout. Besides, binding in test [4] was put at a Kd of 0.537 nM. The koff (in general, a measure of how fast the partners let go of each other) in test [4] stood at 9.34e-05 s⁻¹. Besides, in test [4], the kon – broadly, the rate constant with which the complex forms – amounted to 174000 M⁻¹ s⁻¹.

B2: rabbit monoclonal antibody 1D2 against the SARS-CoV-2 S1 (antibody, V domains shown)
VH: QSVEESGGRLVTPGTSLTLTCTVSGIDIETYWMSWVRQAPGKGLEWIAIITSHDHSGYANWAEGRFTISKTSTTVTLTITDLQPSDTGTYFCAKDVGHSTYDLWGPGTLVTVSS
VL: AAVLTQTPSPVSAAVGGTVTISCQSSESVLSNNRLSWYQQKPGQPPKLLIYAASTLASGVPSRFKGRGSGTQFTLTISDVQCDDAAMYVCAGAFSGSSDTRAFGGGTEVVVKG
For B2, the binding result in test [1] is “no binding”. Moreover, the binding result in test [3] was “no binding”. In test [4], binding was characterised by a dissociation constant (Kd) of 3.55 nM, the koff stood at 0.000259 s⁻¹ and the kon was 72900 M⁻¹ s⁻¹.

B3: rabbit monoclonal antibody 9A5 against the SARS-CoV-2 S1 (antibody, V domains shown)
VH: QSVEESGGRLVTPGTPLTLTCTVSGFSLSAYQMIWVRQTPGKGLEYIGIMHTGTSAYYANWAKGRFTISKTSSTTVDLKMTSPTTEDTATYFCGRNLNEGFTGAYPFNLWGPGTLVAVSS
VL: DVVMTQTPASVEAAVGGTVTIKCQASQSIGSNLAWYQKKPGQPPKLLIYQASNLASGVPSRFKGSGSGTQFTLTISDLECADAATYYCQMNYYISSSYTYTFGGGTEVVVKG
As for B3, the binding result in test [1] was “no binding”. The binding result in test [2] was “no binding”. Moreover, in test [3], the binding result is recorded as “no binding”. For the same molecule, in test [4], the Kd (usually a measure of binding affinity in units of concentration) was 0.87 nM, the koff was 0.000115 s⁻¹ and the kon is 132000 M⁻¹ s⁻¹.

B4: rabbit monoclonal antibody 7G5 against the SARS-CoV-2 S1 (antibody, V domains shown)
VH: QEQLEESGGDLVKPGASLTLTCTASGFSFSSAYYMCWVRQAPGKGLEWIACIGVDSGGNSYYASWAKGRFTISTTSSTTVTLQMTSLTAADKATYFCTRSFSLWGPGTLVTISS
VL: RKWLTQTASSVSAAVGGTVTISCQASQSVYNNDNLAWFQQRPGQPPKLLIYLASNLASGVPPRFSGSGSGTQFTLTISDVQCDDAATYYCLGGYDCSNADCHAFGGGTEVVVKG
For the molecule B4, the binding result in test [1] was “no binding”. Moreover, in test [2], the binding result is “no binding”. Besides, the binding result in test [3] is “no binding”. Besides, in test [4], binding was characterised by a dissociation constant (Kd) of 2.14 nM, the koff was determined as 0.000261 s⁻¹ and the kon amounted to 122000 M⁻¹ s⁻¹.

B5: rabbit monoclonal antibody 1H1 against the SARS-CoV-2 S1 (antibody, V domains shown)
VH: QSLEESGGDLVKPGASLTLTCTASGFSFSSGYDMCWVRQAPGKGLEWIACIGTGSSGNIYYASWAKGRFTISKTSSTTVTLQMTSLTAADTATYFCARDDADYAGPDYFNLWGPGTLVTVSS
VL: DIVMTQTPASVSEPVGGTVTIKCQASESISNWLAWYQQKPGQPPKLLIYAAFTLASGVPSRFKGSGSGTQFTLTINGVECADAATYYCQQTYSSRDVDNVFGGGTEVVVKG
Take B5: the binding result in test [1] is given as “no binding”. In test [2], the binding result is on record as “no binding”. Also, in test [3], the binding result is “no binding”. In test [4], this molecule displayed a Kd of 2.06 nM, a koff of 0.000273 s⁻¹ and a kon of 133000 M⁻¹ s⁻¹.

The record behind these values is patent publication US20220056111A1 (YUROGEN BIOSYSTEMS, published 2022).
